Assay: yeast display, Sf9 membrane polyspecificity reagent, FACS + sequencing; frameworks hold sequencing errors
Outline: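 Galactose-induced (36–48 hours) yeast carrying a synthetic nanobody display library were exposed to 10% biotinylated, detergent-solubilized Sf9 membrane reagent at 4 °C for 1 hour. FACS followed streptavidin microbead enrichment, using low and high (top ~1%) gates for expression (anti-HA) and reagent binding (streptavidin). Colony PCR, MiSeq 2 × 250 sequencing and CDR-length filtering followed. Labels for polyreactivity reflect the gate of origin.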

## QVQLVESGGGLVQAGGSLRLSCAASGLTFRIYAMGWYRQAPGKERELVAAISWNGGSTYYADSVKGRFTISRDNAMNTVYLQMNSLKPEDTAVYYFNADPSDRRYPHTWTKMGYWGQGTQVTVSS
  polyreactivity (PSR sort gate): low polyreactivity

## QDQLEESVGGLVQAGGSLRLSCAASGSTFSYYAMGWYRQATGKERELVAAISTLGSSTYYADSVKGRFTISRDNAKNTVNLQMNSLKPEDTAVYYCAVDQYKYDWFYDYYGYTYVYWGQGTQVTVSS
  polyreactivity (PSR sort gate): high polyreactivity

## QVQLVESGGGLVQAGGSLRLRCAASGRTVVGTTMGWYRQAPGKEREVVAAISSGGRTYYADSVKGRFTISRDNAKNTVYLQMNSLIPVDTAVYYCAARRRGKVVPTSQFDYWGQGTQVTVSS
  polyreactivity (PSR sort gate): high polyreactivity

## QVQLVESGGGLVQAGGSLRLSCAASGSTFRANAMGRYRQAPGKERELVAAINSGGSTYYADSVKGRFTISRDNAKNTVYLQMNSLKPEDTAVYYCNKRYWRSDYWGQGTQVTVSS
  polyreactivity (PSR sort gate): high polyreactivity

## QVQLVESGGGLVQAGGSLRLSSAASGRIFDYYAMGWYRQAPGKESELVAAISSGSSTNYADSVKGRFTISRDNAKNTFYLQMNSLKPEDTAVYYCAATYGYLRRNHYNYWGQGTQVTVSS
  polyreactivity (PSR sort gate): high polyreactivity

## QVQLLESGGGLVQAGGSLRLSCAASGRILRINTMGWYRQAPGKERELVAAISWSGGTTYYADSVKGRFTISRDNAKNTVYLQMNSLKPEDTAVYYCNKAIWYAEYDYWGQGTQVTVSS
  polyreactivity (PSR sort gate): low polyreactivity

## QVQLVESGGGLVQAGGSLRLSSAASGRTFAVYTMRWYRQAPGKEREFVARIRYSGGNTYYADSVKRRFTLSRDNAKNTVYLQMNSLKPEDTAVYSCAARSRYRVYGSRNFDYWGQGSQVTVSS
  polyreactivity (PSR sort gate): high polyreactivity

## QVQLVESGGGLVQAGGSLRLSCAASGRTLIHYAMGWYRQAPGKERELVATINIGGRTYADSVKGRFTISRDNAKNTVYLQMNSLKPEDTAVYYCAADHRYSARRSVPTLYDYWGQGTQVTVSS
  polyreactivity (PSR sort gate): low polyreactivity

## QVQLVESGGGLVQAGGSLRLSCAASGRTIGVYAMGWYRQAPGKERELVAAISWSGGTTYYADSVKGRFTISRDNAKNTVYLQMNSLKPEDTAVYYCAADSYTEVDYWGQGSQVTVSS
  polyreactivity (PSR sort gate): low polyreactivity

## QVQLVESGGRLVQAGGSRRLSCAASGFTLRRNAMGWYRQAPGKERELVAAISSSGSTYYADSVKGRFTISRDNAKNTVYLQMNSLKPEDTAVYYCAALSKKVRTGQYNVGGDYWGQGTQVTVSS
  polyreactivity (PSR sort gate): high polyreactivity

## QVQLVESGGGLVQAGGSLRLSCAASGSTFYPYAMGWYRQAPGKERELVAAITTRGRTYYGDSVKGRFTISRDNAKYTVYLQMNSLKPEDTAVYYCNARRYFSRDTSGYNYWGQGTQVTVSS
  polyreactivity (PSR sort gate): high polyreactivity

## QVQLVESGGGLVQAGGSLRLSCAASGLTFDWYAMGWYRQAPGKERELVAAITSVGSTYYADSVKGRFTISRDNAKNTVYLQMNSLKPEDTAVYYCAVEGVMWSFWPYEYWGQGTQVTVSS
  polyreactivity (PSR sort gate): high polyreactivity

## QVQLVESGGGLVQAGGSLRLSCAASGRIYRGYAMGWYRQAPRKERELFARITSGGRTYYADSVKGRFTISRDNAMNTVYLQMISLKPEDTAVYYCATVGGGYDERHNYWGQWTQVTVSS
  polyreactivity (PSR sort gate): high polyreactivity

## QVQLVESGGGLVQAGGSLRLSCAASGRIFYRYAMGWYRQAPGKERELVAAITYSGSSTYYADSVKGRFTISRDNAKNTVYLQMNSLKPEDTAVYYCAARFQSTNGHKYYYWGQGTQVTVSS
  polyreactivity (PSR sort gate): high polyreactivity

## QVQLVESGGGLVQAGGSLRLSCAASGIIFFRNAMGWYRQAPGNERELVATITSGVSTNYADSVKGRFTISRDNAKNTVYLQKNSLKPEDTAVYYCATEGFPFYDFDYWGQGTQVTVSS
  polyreactivity (PSR sort gate): high polyreactivity

## QVQLVESGGGLVQAGGSLRLSCAASGRILWNAMGWYRQAPGKERELVAGITYSGGSTYYADSVKGRFTISRDNAKNTVYLQMNSLKPEDTAVYYCNAGVGARESDYWGQGTQVTVSS
  polyreactivity (PSR sort gate): low polyreactivity

## QVQLVESGGGLVQAGGSLRLSCASSGYIIIIYAMGWYRQAPGKERELVAAINRRGGSTYYADSVKGRFTISRDNAKNTVYLQMNSLKREDTEVYYCNAYPYFSRGPHLYDYWGQGTQVTGSS
  polyreactivity (PSR sort gate): high polyreactivity

## QVQLVESGGGLVQAGGSLRLSCAASGGIFTYNAMGWYIQAPGKERELVAAITWNGGRTYYADSVKGRFTISRDTAKNTVYLQMNSLKPEDTAVYYCAARSPVKRQSRKQYYYWGQGTQVTVSS
  polyreactivity (PSR sort gate): high polyreactivity

## QVQLVESGGGLVQAGGSLRLSCAASGSTFLPNAMGWYRQPPGKERELVAAITNSGGNTYADSVKGRFTISRDNAKNTVYLQMNSLKPEDTAVYYCNARFSPTGWARGNDYWGQGTQVTVSS
  polyreactivity (PSR sort gate): low polyreactivity

## QVQLVESGGGLVQAGGSLRLSCAASGRIFVTYGMGWYRQAPGKERELVAAINWRGGSTYYADSVKGRFTISRDNAKNTVYLQMNSLKPEDTAVYYCNARLYRNRLGYWGQGTQVTVSS
  polyreactivity (PSR sort gate): high polyreactivity

## QVQLVESGGGLVQAGGSLRLSCAATGSTFATNAMGWYKQAPGKEREFVAAISRRGGRTYYADSVKGRFTISRDNAKNTVYLKMNSVKPEDTAVYYCNTLRVGWGQGTQVTVSS
  polyreactivity (PSR sort gate): high polyreactivity

## QVQLVESGGGLVQAGGSLRLSCAASGRTFPRYVMGWYRPAPGKERELVASITSSGGSTYYADSVKGRLTISRDNAKNTVYLQMNSLKPEDTAVYYCAAYARPNSGPYAYRLDYWGQGTQVTVSS
  polyreactivity (PSR sort gate): high polyreactivity

## QVQLVESGGGLVQAGGSLRLSCAASGITFYRYAMGWYRQAPGKERELVASISSRGSSTYYADSVKGRFTISRDNAKNTVYLQMNSLKPEDTAVYYCAKSRGSRGFVASTYNYWGQGTQVTVSS
  polyreactivity (PSR sort gate): high polyreactivity

## QVKLVESGGGLVQAGGSLRLSCAASGFIFPDYAMGWYRQAPGKERELVAAITSSGGRTYYADSVKGRFTISRDNAKNTVYLQMNSLKPEDTAVYYCAARTISPRGYGSDYWGQGTQVTVSS
  polyreactivity (PSR sort gate): high polyreactivity

## QVQLVESGGGLDQAGGSLRLSCPASGITFGYNDMGRYRQAPGKERELVAAINRGASTYYADSVKGRFTISRDNAKNTVYLQMYSLKPEDTAVYYCNADHRDTFIWVGLPHMDYWGQGTQVTVSS
  polyreactivity (PSR sort gate): low polyreactivity

## QVQLVESGGGLVQAGGSLRLSCAASGSIFQYYGMGWYRPAPGKERELVAAITWNGGSTYADSVKGRFTISRDNAKNTVYLQMNSLKPEDTAVYYCAADLLVRWWLDYDYWGQGTQVTVSS
  polyreactivity (PSR sort gate): low polyreactivity

## QVQLVESGGGLVQAGGSLRLSCAASGFTFWDYAMGWYRQAPGKERELVATISVGGGSTYYADSVKGRFTISRDNSKNSVYLQMNSLKPEDTAVYYCAADRSYYLAGYDYWGQGTQVPVSS
  polyreactivity (PSR sort gate): low polyreactivity

## QVQHVESGGGLVQAGGSLRLSCAASGSTIILNAMGWYRQAPGKERELVATISSSDTSTYYADSVKGRFTISRDNANNTVYLQMNSLKPEDTAVYYCNADYYTTSYLQRVIHYGVEYDYWGQGTQVTVSS
  polyreactivity (PSR sort gate): low polyreactivity

## QVQLVESGGGIVQAGVSLRLSCAASGISYSPNVMGWYRQAPGKERELVASISSGGSTYYADSVNGRFTISRDNATNSVYLQMNSLKPEDTAVYYCAAEVDGYWTYYYWGQGTQVTVSS
  polyreactivity (PSR sort gate): low polyreactivity

## QVQLVESGGGLVQAAGILRLSCAASGFIVVRNAMGWYRQAPGKERELVAAISAIGSSTYYADSVKGRFTISRDNAKNTVYLQLNSLKPEDTAVYYCAASGSRVSERSPTRLDYYCGQGTQVTVSS
  polyreactivity (PSR sort gate): high polyreactivity

## QVQLVESGGGLVQAGGSLRISCAASGSIFSDNGMGWYRQAPGKERELVAAITIGGSTNYADSVKGRFTISRDNAKNTVYLLMKRLNPEDTAVYYCNTDFFYYGYNFPYFDYDYWGQGTQVTVSA
  polyreactivity (PSR sort gate): low polyreactivity

## QVQLGESGGALVQAGGSLRLSCAASGSTIYAYDMGWYRPAPGKERELVAAISSGGSTYYADSVKGRFTFSRDNAKNTVYLQMNCLKPEDTAVYYCATEYTYELEASEPSDYDYWGQGTQVTVSS
  polyreactivity (PSR sort gate): low polyreactivity

## QVHLVESGGGLVQAGGSLRLSCAASGLTFWAYTLGWYRQAPGQERELVAAITSSGGRTYYADSVKGRFTISRDNAKNTVYLQMNSLKPEDTGVYYCNARIFRSPTPYDYWGQGTQVTVSS
  polyreactivity (PSR sort gate): high polyreactivity

## QVQLVESGGGLVQAGGSLRLSCAASGRTFPSYAMGWYRQAPGKERELVAVIRGGGSTKYADSVKGRFTISRDNAKNTVYLQMNSLKPEDTAVYYCATRGYPKFNYIYYYWGQGTQVTVSS
  polyreactivity (PSR sort gate): high polyreactivity

## QVQLVESGGGLVQAGGSIRLTCAASGSIFVFYAMGWYRQAPGKEREFVATITWSGTSTYYADSVKGRFSISRDNAKNTVYLQMNSLKPEDTAVYYCAARYLGGRRSGDYSRYYWGQGTQVTVSS
  polyreactivity (PSR sort gate): high polyreactivity

## QVQLVESGGGLVQAGGSHRLSCAASGRTFSYYAMGWYRQAPGKEREMDADISKSGGRTYYADSLKGRFTISRDNAKNTVYLQMNSLKPEDTAVYYCAAGFYWAVYYSVDYWGQGTQVTVSS
  polyreactivity (PSR sort gate): high polyreactivity

## QLQLVESGGGLVQAGGSLRLSCAASGRTFQGYAMGWYRQAPGKERELVAAISRSGGRTYYADSVKGRFTISRDNAKYTVYLQMNSLKPEDTAVYYCCTEAFRDYGYWGQGTQVTVSS
  polyreactivity (PSR sort gate): high polyreactivity

## QVQLVESGGGLVQAGGSLRLSCAASGSIFSHNAMGWYRQAPGKERELVASMTGSGGSTYYADSVKGRFTISRDNAKNTVYLHMNSLKPEDTAVYYCAADSYGRSETEDDYWGQGTQVTVSS
  polyreactivity (PSR sort gate): low polyreactivity

## QVKLVESAGGLVQAGGSLRLSCPASGIIFGLYTMGWYRQAPGKERELVAAISDSGGRTYYADSVKGRFTISRDNVKNTVYFQMNSRKPADTAVYYCATRWPNYGGYYYWGLGTQVTVSS
  polyreactivity (PSR sort gate): high polyreactivity

## QVQLVESGGGLVQAGGSLRLSCAASGLIFYYYAIGWYRQAPGKERELVAAITTGGGTYYADSVKGRFSISRVNAKNTVYLQMNSLKPEDTAVYYCAVYYRSYWGYEYWGQGTQVTVSS
  polyreactivity (PSR sort gate): high polyreactivity

## QVQLVESGGGLVQAGGSLRLSCAASGFIFTGYTMGWYRQAPGKERELVARISSGDSTKYADSVKGRFTISRDNAKNTVYLQMNSLKPEDTAVYYCAATTGYTARWRNRYIYYYWGQGTQVTVSS
  polyreactivity (PSR sort gate): high polyreactivity

## QVQLVESGGGLVQAGGSLRLSCAASGRTFGWSAMGWYRQAPGKERELVAAISSSGGSTYYADSVKGRFTISRDNAKNTVYLQMNSLKPEDTAVYYCAKESYRGGFDYWGQGTQVTVSS
  polyreactivity (PSR sort gate): high polyreactivity

## QVQLVESGGGLVQAGCSLRLSSAASGSTFLGYAMGWYRQAPGKERELVAAITYSAGSTYYADSVKGRFTISRDNAKNTVYLQMNSLKPEDTAVYYCSKRYSGYDHWGQGTQVTVSS
  polyreactivity (PSR sort gate): low polyreactivity
